For the assay, the target named is CoV2_5P prefusion-stabilized spike protein (SARS-CoV-2) (UniProt P0DTC2). The assay is described as follows: ELISA.

Usually EC50 (read off the curve) stands for the concentration needed to bring the measured effect to its halfway point. CR3022 (antibody): the half-maximal effective concentration (EC50 (read off the curve)) was determined as 0.02 µg/mL.

The record behind these values is patent US20250134988A1.
